T1: human TG2 (Homo sapiens, UniProt P21980)
T1 sequence (P21980 1-687): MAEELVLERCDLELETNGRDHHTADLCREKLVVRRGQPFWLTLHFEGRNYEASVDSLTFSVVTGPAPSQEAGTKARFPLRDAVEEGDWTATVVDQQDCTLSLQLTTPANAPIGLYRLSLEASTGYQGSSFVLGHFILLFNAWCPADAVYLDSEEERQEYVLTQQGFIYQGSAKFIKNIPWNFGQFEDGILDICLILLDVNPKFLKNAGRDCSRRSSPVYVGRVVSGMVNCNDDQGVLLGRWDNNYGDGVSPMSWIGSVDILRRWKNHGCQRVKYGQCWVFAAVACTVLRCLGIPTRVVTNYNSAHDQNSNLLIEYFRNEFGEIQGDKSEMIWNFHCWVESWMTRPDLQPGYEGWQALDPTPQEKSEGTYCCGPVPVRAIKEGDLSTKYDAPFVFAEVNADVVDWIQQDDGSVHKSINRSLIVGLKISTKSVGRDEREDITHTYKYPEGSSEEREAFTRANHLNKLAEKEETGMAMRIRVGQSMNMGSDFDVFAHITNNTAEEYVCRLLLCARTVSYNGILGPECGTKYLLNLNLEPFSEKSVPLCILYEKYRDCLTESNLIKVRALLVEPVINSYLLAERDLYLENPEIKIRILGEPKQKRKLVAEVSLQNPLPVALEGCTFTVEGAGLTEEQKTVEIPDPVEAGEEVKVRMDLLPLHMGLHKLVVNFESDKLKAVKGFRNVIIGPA


Legend:
Cynomolgus TG2 = assay: Biacore (SPR) affinity, cynomolgus TG2; format: binding, cynomolgus monkey; conditions: +Ca^2+ (1 mM CaCl2 running buffer; includes rows without a Ca mark)
Experimental: (§1) Recombinant human TG2 was obtained from Zedira GmbH (cat. no.: T002). Recombinant cynomolgus monkey TG2 was obtained from Trenzyme. Surface plasmon resonance (SPR) was measured on a Biacore T200 instrument (GE Healthcare). CM5 chips (GE Healthcare cat. no.: BR-1006-68) were coated with monoclonal mouse anti-human IgG1 (Fc) (MAH) antibody (GE Healthcare cat. no.: BR-1008-39) by amine-coupling as described in the manufacturers instructions. HBS-EP+ buffer (0.01 M HEPES, 0.15 M NaCl, 3 mM EDTA, 0.05% v/v Surfactant P20) and HBS-P+ buffer (0.01 M HEPES, 0.15 M NaCl, 0.05% Surfactant P20) were purchased from GE Healthcare as 10× stocks (cat. nos.: BR-1006-69 and BR-1006-71). Calcium Chloride solution was obtained from Sigma Aldrich (cat. no.:21115).
(§2) The method employed to determine the affinity of the anti-TG2 antibodies involved the capture of the chimeric or humanised antibodies on a MAH coated CM5 chip, followed by the injection of a series of TG2 samples in running buffer. The running buffer was 1×HBS-P+ containing 1 mM CaCl2, or 1×HBS-EP+ for calcium-free experiments. Antibody capture was carried out for a contact time of 120 seconds at a flow rate of 10 μl/min resulting in the capture of approximately 40-80 RU. TG2 was injected over the immobilised antibody at concentrations ranging from 25 nM to 400 nM with a contact time up to 600 seconds at a flow rate of 30 μl/min. Dissociation of TG2 was typically measured for up to 5400 seconds (1.5 hours). Regeneration of the chip was then performed using 3 M MgCl2, for a contact time of 60 seconds at a flow rate of […], followed by a 300 s stabilisation period before the next sample. For each of human and cynomolgus monkey TG2, at least 5 injections at a variety of concentrations were performed in at least two separate experiments.
(§3) Kinetic data were exported from the Biacore T200 Evaluation Software and analysed using GraphPad Prism, where the association phases and dissociation phases were analysed separately using a one phase association model and one-phase exponential decay model respectively. Association rates (kon) were calculated for each curve individually, and dissociation rates (koff) values from the long dissociation phase data collected. Where koff values were calculated to be <1×10^−5 s^−1, values were set at 1×10^−5 for analysis, as rates slower than this could not be estimated accurately. Values for kon and koff are presented in the tables below as the mean of the individual calculated values for each antibody for each TG2 species from multiple concentrations +/−1 standard deviation. KD values are calculated as mean koff/mean kon.

human TG2 [1] = target: T1, human TG2; assay: Fluorescence-based transglutaminase assay (dansylated lysine into N,N-dimethylated casein), human TG2; format: biochemical; parameters: purchased Zedira GmbH T002; conditions: 1 nM human TG2
Experimental: Transglutaminase activities of purified human (Zedira) or cynomogolus monkey TG2 enzymes (Trenzyme) were measured by incorporation of dansylated lysine K×D (Zedira) into N,N-dimethylated casein (DMC, Sigma). Human or cynomogolus monkey TG2 were diluted in transamidation buffer (25 mM HEPES pH 7.4 containing 250 mM NaCl, 2 mM MgCl2, 5 mM CaCl2, 0.2 mM DTT and 0.05% v/v Pluronic F-127) to 1 nM and 10 nM respectively and mixed with various concentrations of protein-A purified murine, chimeric or humanised TG2 antibodies for 180 min at room temperature in 384-well black microtiter plates (Corning). Reactions were initiated by addition of DMC and K×D to a final concentration of 10 uM and 20 uM respectively and a final reaction volume of 30 ul, and allowed to proceed at RT for 180 min and the increase in fluorescence (RFU) (excitation at 280 nm, emission 550 nm) monitored using a Tecan Safire^2 plate reader. Data were normalised to percentage activity where % activity=(RFU test antibody−RFU low controls)/RFU high controls−RFU low controls)×100, where low controls contained all components except enzyme and high controls contained all components except antibody.
Antibody dose response curves were plotted using GraphPad prism software and fitted using a 4-parameter logistical model to return IC50 and other statistical parameters. The results are illustrated in FIGS. 29 to 33.

WI-38 cells = assay: Scratch wound assay in WI-38 cells; format: cell-based, human; conditions: serum free media; Cytochalasin D 0.1 μM, R281 100 μM, Z DON 10 μM and 100 μM, Cub7402 5 μg/ml
Experimental: WI-38 cells (normal human lung fibroblasts ATCC cat#CCL-75) were plated in a 96 well Image Lock plate (Essen cat#4379) at 2×10^4/well in αMEM media (Life Technologies cat#32561) with 10% FBS and grown O/N to >97% confluence. Cells were washed 2× with αMEM media without serum and a scratch wound was generated using an Essen Wound Maker and the manufacturers protocol. The media was removed and replaced with 95 μl/well serum free media. Controls and test antibodies were added to the wells. The plate was placed in an Essen Incucyte and the closure of the wound was analysed using the scratch wound protocol.
Cytochalasin D was used as an assay control at 0.1 μM. R281, a small molecule non-specific transglutaminase inhibitor, was tested at 100 μM. Z DON, a peptide non reversible transglutaminase inhibitor was tested at 10 μM and 100 μM. The commercially available TG2 antibody Cub7402 (ABcam cat#ab2386) was tested at 5 μg/ml. Antibodies of the invention were tested on at least three occasions at various concentrations as indicated. In all experiments controls were Cytochalasin D at 0.1 uM and ZDON at two concentrations to show a dose dependant effect.

human TG2 [2] = target: T1, human TG2; assay: Biacore (SPR) affinity, human TG2; format: binding; parameters: purchased Zedira GmbH T002; conditions: +Ca^2+ (1 mM CaCl2 running buffer; includes rows without a Ca mark)
Experimental: as §1, §2, §3

human TG2 [3] = target: T1, human TG2; assay: ELISA assay for TG2 binding, human TG2; parameters: purchased Zedira GmbH T002
Experimental: Antibody binding to human and cynomolgus monkey TG2 was determined in an ELISA assay. Clear polystyrene “Maxisorp” 96-well plates (Nunc) were coated with 50 ng purified human or cynomogulus monkey TG2 in 50 μl 0.05 M carbonate-bicarbonate buffer pH 9.6 at 4° C. overnight. Control wells were coated with 50 μl 100 μg/ml bovine serum albumin (BSA). Plates were washed 3× with 300 μl phosphate-buffered saline pH7.4 (PBS) containing 0.1% Tween 20 (PBST) and blocked with 300 μl 3% w/v Marvel skimmed milk in PBS for 1 hour at room temperature. After 3× wash with PBST, 50 μl protein-A purified chimeric or humanised anti-TG2 antibodies or human IgG1 kappa isotope control antibody or CUB7402 (Abcam) were serially diluted 4-fold from a top concentration of 50 nM in PBS, and added to the plate in duplicate. […] After 3× washes with PBST, the plates were developed with 50 μl TMB substrate (Sigma) for 5 min at room temperature before stopping the reaction with 25 μl 0.5M H2SO4 and reading absorbance at 450 nm in a microtiter plate reader (BioTek EL808). Dose response curves were analysed and EC50 values and other statistical parameters determined using a 4-parameter logistical fit of the data (GraphPad Prism).

| Molecule | koff (Cynomolgus TG2) | kon (Cynomolgus TG2) [M⁻¹ s⁻¹] | inhibition of human TG2 transamidation (in words) (human TG2 [1]) | effect on wound closure (WI-38 cells) | koff (human TG2 [2]) | kon (human TG2 [2]) [M⁻¹ s⁻¹] | ELISA binding to human TG2 (in words) (human TG2 [3]) |
| --- | --- | --- | --- | --- | --- | --- | --- |
| cDC001: chimeric DC1 antibody: murine variable regions, human IgG1 and human kappa (antibody, V domains shown) VH: EVQLVESGGGLVKPGGSLKLSCAASGFTLSTHAMSWVRQTPEKRLEWVATISSGGRSTYYPDSVKGRFTISRDNVKNTLYLQLSSLRSEDTAVYFCARLISTYWGQGTTLTVSS VL: DITMTQSPSSIYASLGERVTITCKASQDINSYLTWFQQKPGKSPKILIYLVNRLVDGVPSRFSGSGSGQDYALTISSLEYEDMGIYYCLQYDDFPYTFGGGTKLEIK | <10^−5 s^−1 | 420000 | potent inhibition of TG2 activity in the low nanomolar range | inhibited wound closure | <10^−5 s^−1 | 320000 | – |
| hBB001BB: humanised BB7 antibody (heavy chain hBB001HB, light chain hBB001KB by name) (antibody, V domains shown) VH: EVQLLESGGGLVQPGGSLRLSCAASGIIFSSSAMSWVRQAPGKGLEWVATISSGGRSTYYPDSVKGRFTVSRDSSKNTLYLQMNSLRAEDTAVYYCAKLISPYWGQGTLVTVSS VL: DIKMTQSPSSLSASVGDRVTITCKASQDINSYLTWFQQKPGKAPKTLIYLTNRLMDGVPSRFSGSGSGQEFLLTISSLQPEDFATYYCLQYVDFPYTFGQGTKVEIK | 3.7e-05 s⁻¹ | 270000 | potent inhibition of TG2 activity in the low nanomolar range | – | <10^−5 s^−1 | 240000 | comparable EC50 values |
| hAB004: humanised AB1 antibody; heavy chain version RHA with light chain version RKE (antibody, V domains shown) VH: EVQLLESGGGLVQPGGSLRLSCAASGFTFSSSAMSWVRQAPGKGLEWVSTISVGGGKTYYPDSVKGRFTISRDNSKNTLYLQMNSLRAEDTAVYYCAKLISLYWGQGTLVTVSS VL: EIVLTQSPSSLSASVGDRVTITCKASQDINSYLTWYQQKPGKAPKLLIYRTNRLFDGVPSRFSGSGSGTDFFFTISSLQPEDFGTYYCLQYDDFPYTFGGGTKLEIK | 1.8e-05 s⁻¹ | 160000 | potent inhibition of TG2 activity in the low nanomolar range | – | 2.4e-05 s⁻¹ | 200000 | comparable EC50 values |
| hAB005: humanised AB1 antibody; heavy chain version RHA with light chain version RKJ (antibody, V domains shown) VH: EVQLLESGGGLVQPGGSLRLSCAASGFTFSSSAMSWVRQAPGKGLEWVSTISVGGGKTYYPDSVKGRFTISRDNSKNTLYLQMNSLRAEDTAVYYCAKLISLYWGQGTLVTVSS VL: DIQMTQSPSSLSASVGDRVTITCKASQDINSYLTWFQQKPGKAPKSLIYRTNRLFDGVPSRFSGSGSGTDFFLTISSLQPEDFATYYCLQYDDFPYTFGQGTKVEIK | 3.4e-05 s⁻¹ | 140000 | potent inhibition of TG2 activity in the low nanomolar range | inhibited wound closure | <10^−5 s^−1 | 190000 | – |

Source: patent US10005846B2, “Anti-transglutaminase 2 antibodies” (MEDICAL RESEARCH COUNCIL TECHNOLOGY, priority 2012, dated 2018)
